Substitutions are numbered along the chain they refer to.

The labels stand for the following.
T1: PvMYB4a (Panicum virgatum)
T1 chain: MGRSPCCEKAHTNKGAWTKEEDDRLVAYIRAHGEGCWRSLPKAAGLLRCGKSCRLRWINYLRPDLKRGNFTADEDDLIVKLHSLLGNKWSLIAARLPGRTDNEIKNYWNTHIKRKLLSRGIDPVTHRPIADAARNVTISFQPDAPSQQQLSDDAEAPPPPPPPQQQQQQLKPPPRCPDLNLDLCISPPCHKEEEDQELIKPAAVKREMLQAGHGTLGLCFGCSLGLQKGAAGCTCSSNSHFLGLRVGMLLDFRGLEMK

B1: AtGA20ox2 promoter AC-IV (dsDNA)
DNA 1: ATTATAAGAAAGATTAAAAAACCAAACAAATGTACACTAACATGACT
DNA 2: AGTCATGTTAGTGTACATTTGTTTGGTTTTTTAATCTTTCTTATAAT
B2: AtGA20ox2 promoter AC-II (dsDNA)
DNA 1: CTTAACTCTTAACTGGTCGAACCAACCATGAATGATTTGGGCATAAT
DNA 2: ATTATGCCCAAATCATTCATGGTTGGTTCGACCAGTTAAGAGTTAAG
B3: AC-III x3 EMSA probe (dsDNA)
DNA 1: CCAGTCCACCTAACTCTACCTAACTCTACCTAACGCTGTTC
DNA 2: GAACAGCGTTAGGTAGAGTTAGGTAGAGTTAGGTGGACTGG
B4: AC-IV x3 EMSA probe (dsDNA)
DNA 1: B3 DNA 1 with T11A, T21A, T31A
DNA 2: B3 DNA 2 with A11T, A21T, A31T
B5: AC-I x3 EMSA probe (dsDNA)
DNA 1: CGGTACCAGTCCACCTACCGCCACCTACCGCCACCTACCGCTGTTCTCGA
DNA 2: TCGAGAACAGCGGTAGGTGGCGGTAGGTGGCGGTAGGTGGACTGGTACCG
B6: AC-II x3 EMSA probe (dsDNA)
DNA 1: B5 DNA 1 with T16A, T26A, T36A
DNA 2: B5 DNA 2 with A15T, A25T, A35T

In one data set the target is T1, PvMYB4a. Nature of the data set: EMSA; 5 mM MgCl2, 50 mM KCl, pH 7.5, 4 C. The following applies: tags: N-terminal His (pDEST17), E. coli BL21 DE3; label: biotin. The protocol:
The present and previous studies indicate that subfamily 4 MYB proteins directly bind the AC cis-elements in downstream monolignol biosynthesis gene promoters (Legay et al., 2007; Sonbol et al., 2009). […] Gel shift assays were performed to test for possible direct binding of PvMYB4 to different AtGA20-ox2 promoter regions in vitro. Analysis of the AtGA20-ox2 promoter 1500 bp upstream of the transcription start site identified an AC-II (−1200 bp) and an AC-IV (−150 bp) element. […] This is consistent with the direct binding of PvMYB4 to the synthetic AC-II elements (FIG. 4F). Binding of PvMYB4 to the AC elements in the GA20-ox promoter appears to inhibit expression of the gene.
PvMYB4a was cloned into the pDEST17 expression vector by the Gateway cloning method (Invitrogen). After sequencing, the plasmid was transformed into BL21 DE3 E. coli competent cells. IPTG was added to induce expression of PvMYB4. The recombinant protein was purified with the MagneHis™ Protein Purification System (Promega Corporation, Madison, Wis.) then concentrated with an Amicon Ultra-15 Centrifugal Filter (Millipore Corporation, Billerica, Mass.). About 700-1000 ng of purified PvMYB4 protein was used for EMSA in each reaction. […] The DNA was transferred onto Nylon membranes and signal detected with a LightShift® Chemiluminescent EMSA Kit (Thermo Fisher Scientific Inc. Rockford, Ill.) using standard protocols.
(Mobility shift assays separate free from complexed probe on a gel.)
As to B1, the binding result is given as “no binding”. Take B2: the binding result was “binds”.

The next data set concerns the target T1, PvMYB4a. Nature of the data set: EMSA; 5 mM MgCl2, 50 mM KCl, pH 7.5, 4 C. The settings on record: tags: N-terminal His (pDEST17), E. coli BL21 DE3; label: biotin. The source holds these as a separate data set. The protocol:
PvMYB4a was cloned into the pDEST17 expression vector by the Gateway cloning method (Invitrogen). After sequencing, the plasmid was transformed into BL21 DE3 E. coli competent cells. IPTG was added to induce expression of PvMYB4. The recombinant protein was purified with the MagneHis™ Protein Purification System (Promega Corporation, Madison, Wis.) then concentrated with an Amicon Ultra-15 Centrifugal Filter (Millipore Corporation, Billerica, Mass.). About 700-1000 ng of purified PvMYB4 protein was used for EMSA in each reaction. The probes were labeled by annealing biotin-labeled olignucleotides or PCR products, then purified with a gel extraction kit (QIAGEN). Binding conditions were 12 mM Tris-HCl (pH 7.5), 20 mM NaCl, 50 mM KCl, 5 mM MgCl₂, 1 mM DTT, 0.2 mM EDTA, 2.5% glycerol, 1 mM β-ME, 0.05% NP-40 and 2 fmol biotin-labeled probes. The samples were loaded and run in a 6% DNA retardant gel (Invitrogen) in the cold room after the reactions had been incubated at 4° C. for 30 minutes. The DNA was transferred onto Nylon membranes and signal detected with a LightShift® Chemiluminescent EMSA Kit (Thermo Fisher Scientific Inc. Rockford, Ill.) using standard protocols.
Consider B3, for which the binding result is “binds”. On the same count and under the same terms, under B4 stands “no binding”; under B5, “binds”; under B6, “binds”.

These data come from patent US20120322122, “COMPOSITIONS AND METHODS FOR IMPROVED PLANT FEEDSTOCK” (published 2012).
